Data: PMC9246715, “Bacillus subtilis biofilm matrix components target seed oil bodies to promote growth and anti-fungal resistance in melon” (Nature Microbiology, 2022)

Molecular target: the molecule itself
Assay: thioflavin T fluorescence (polymerization kinetics) + TEM; purified TasA 0.4 or 0.2 mg/ml in buffer (20 mM Tris, 50 mM NaCl, pH 7) or seed apoplastic fluid, 20 µM ThT, 30 °C, shaking

B1: amyloid protein TasA (natural protein, B. subtilis, UniProt P54507 28-261, looked up)
chain: AFNDIKSKDATFASGTLDLSAKENSASVNLSNLKPGDKLTKDFQFENNGSLAIKEVLMALNYGDFKANGGSNTSPEDFLSQFEVTLLTVGKEGGNGYPKNIILDDANLKDLYLMSAKNDAAAAEKIKKQIDPKFLNASGKVNVATIDGKTAPEYDGVPKTPTDFDQVQMEIQFKDDKTKDEKGLMVQNKYQGNSIKLQFSFEATQWNGLTIKKDHTDKDGYVKENEKAHSEDKN
notes: TasA, amyloid protein of the extracellular matrix of Bacillus subtilis biofilms; also called purified TasA
  binding result: binds
